Test results from patent US20220025071A1 (BIOMOLECULAR, published 2022).

How the values were obtained:
[1] = molecular target: Recombinant human Fc gamma receptor IIIb, CD16b (human, UniProt O75015 17-200)
[2] = molecular target: T1, Recombinant human Fc gamma receptor IIb/c, CD32b/c (human, UniProt P31994 46-217)
T1 sequence (looked up): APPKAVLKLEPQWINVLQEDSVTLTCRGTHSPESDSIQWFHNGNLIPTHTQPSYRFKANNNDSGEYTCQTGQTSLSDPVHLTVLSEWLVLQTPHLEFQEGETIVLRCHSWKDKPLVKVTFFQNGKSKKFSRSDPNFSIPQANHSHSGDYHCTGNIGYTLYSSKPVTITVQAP

[3] = molecular target: Recombinant human Fc gamma receptor IIIa, CD16a 158V (human, UniProt P08637 17-208)
Recombinant human Fc gamma receptor IIIa, CD16a 158V, sequence (P08637 17-208 F176V limits assumed): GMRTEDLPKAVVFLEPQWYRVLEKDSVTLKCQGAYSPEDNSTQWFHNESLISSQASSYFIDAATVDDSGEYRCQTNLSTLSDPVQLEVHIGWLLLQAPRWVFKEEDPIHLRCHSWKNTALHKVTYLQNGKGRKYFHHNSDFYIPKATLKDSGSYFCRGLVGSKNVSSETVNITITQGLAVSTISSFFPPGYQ

[4] = molecular target: T2, Recombinant human Fc gamma receptor IIa, CD32a 131H (human, UniProt P12318 36-218)
T2 sequence (looked up): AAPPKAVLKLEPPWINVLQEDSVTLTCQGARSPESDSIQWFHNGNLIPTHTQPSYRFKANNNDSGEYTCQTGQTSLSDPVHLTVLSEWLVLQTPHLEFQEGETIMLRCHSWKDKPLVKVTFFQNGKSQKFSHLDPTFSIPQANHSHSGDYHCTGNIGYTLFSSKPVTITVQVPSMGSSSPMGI

[5] = molecular target: Recombinant human Fc gamma receptor IIIa, CD16a 158F (human, UniProt P08637 17-208)
Recombinant human Fc gamma receptor IIIa, CD16a 158F, sequence (P08637 17-208 limits assumed): as the sequence (P08637 17-208 F176V limits assumed) above, with V160F counted along it

[6] = molecular target: T3, Recombinant human Fc gamma receptor IIa, CD32a 131R (human, UniProt P12318 36-218)
T3 sequence (looked up): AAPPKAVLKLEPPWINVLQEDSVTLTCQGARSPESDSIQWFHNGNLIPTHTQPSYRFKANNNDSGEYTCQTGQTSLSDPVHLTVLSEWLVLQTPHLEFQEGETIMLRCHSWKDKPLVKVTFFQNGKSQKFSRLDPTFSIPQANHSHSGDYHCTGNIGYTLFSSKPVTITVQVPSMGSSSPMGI

[7] = molecular target: T4, CD20 Lipoparticles (UniProt P11836 1-297)
T4 sequence (looked up): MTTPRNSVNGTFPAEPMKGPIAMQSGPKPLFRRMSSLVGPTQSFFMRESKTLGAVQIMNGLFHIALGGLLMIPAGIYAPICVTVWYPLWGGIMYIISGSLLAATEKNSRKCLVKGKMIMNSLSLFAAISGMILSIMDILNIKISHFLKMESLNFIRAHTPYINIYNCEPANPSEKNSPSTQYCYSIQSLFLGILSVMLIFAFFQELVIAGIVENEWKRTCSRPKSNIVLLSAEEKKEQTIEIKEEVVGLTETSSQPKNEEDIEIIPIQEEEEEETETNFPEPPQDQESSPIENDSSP

[8] = molecular target: Recombinant human Fc gamma receptor I, CD64 (human, UniProt P12314 16-288)
Recombinant human Fc gamma receptor I, CD64, sequence (P12314 16-288 limits assumed): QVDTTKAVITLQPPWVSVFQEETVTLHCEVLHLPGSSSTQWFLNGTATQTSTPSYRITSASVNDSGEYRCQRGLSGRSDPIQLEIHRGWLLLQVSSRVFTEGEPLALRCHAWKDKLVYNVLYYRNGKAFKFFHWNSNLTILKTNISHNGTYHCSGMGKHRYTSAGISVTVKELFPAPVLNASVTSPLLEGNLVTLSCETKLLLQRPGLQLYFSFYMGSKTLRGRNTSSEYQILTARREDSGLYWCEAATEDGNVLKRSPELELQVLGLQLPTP

[9] = molecular target: T5, CD19 (UniProt P15391 20-291)
T5 sequence (looked up): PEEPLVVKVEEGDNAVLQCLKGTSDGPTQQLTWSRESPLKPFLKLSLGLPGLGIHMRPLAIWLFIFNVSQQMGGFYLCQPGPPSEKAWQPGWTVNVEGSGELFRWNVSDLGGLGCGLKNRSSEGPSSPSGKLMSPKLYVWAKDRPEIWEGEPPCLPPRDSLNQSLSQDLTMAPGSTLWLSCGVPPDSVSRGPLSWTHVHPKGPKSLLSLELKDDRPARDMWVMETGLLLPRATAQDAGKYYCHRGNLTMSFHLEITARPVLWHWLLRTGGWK

Recombinant human Fc gamma receptor IIIb, CD16b, sequence (O75015 17-200 limits assumed): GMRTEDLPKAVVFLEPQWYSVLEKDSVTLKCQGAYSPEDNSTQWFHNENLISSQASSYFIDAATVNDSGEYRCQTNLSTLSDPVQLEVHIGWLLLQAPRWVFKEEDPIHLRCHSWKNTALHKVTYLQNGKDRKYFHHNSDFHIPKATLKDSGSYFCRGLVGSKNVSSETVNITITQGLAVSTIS

B1: Rc66SIDE (one-arm antibody) (antibody, human IgG1, kappa)
light: QIVLSQSPAILSASPGEKVTMTCRASSSVSYIHWFQQKPGSSPKPWIYATSNLASGVPVRFSGSGSGTSYSLTISRVEAEDAATYYCQQWTSNPPTFGGGTKLEIKRTVAAPSVFIFPPSDEQLKSGTASVVCLLNNFYPREAKVQWKVDNALQSGNSQESVTEQDSKDSTYSLSSTLTLSKADYEKHKVYACEVTHQGLSSPVTKSFNRGEC
heavy: QVQLQQPGAELVKPGASVKMSCKASGYTFTSYNMHWVKQTPGRGLEWIGAIYPGNGDTSYNQKFKGKATLTADKSSSTAYMQLSSLTSEDSAVYYCARSTYYGGDWYFNVWGAGTTVTVSAASTKGPSVFPLAPSSKSTSGGTAALGCLVKDYFPEPVTVSWNSGALTSGVHTFPAVLQSSGLYSLSSVVTVPSSSLGTQTYICNVNHKPSNTKVDKKAEPKSCDKTHTCPPCPAPELLGGPDVFLFPPKPKDTLMISRTPEVTCVVVDVSHEDPEVKFNWYVDGVEVHNAKTKPREEQYNSTYRVVSVLTVLHQDWLNGKEYKCKVSNKALPAPEEKTISKAKGQPREPQVYVLPPSRDELTKNQVSLLCLVKGFYPSDIAVEWESNGQPENNYLTWPPVLDSDGSFFLYSKLTVDKSRWQQGNVFSCSVMHEALHNHYTQKSLSLSPGK
chain: CPPCPAPELLGGPDVFLFPPKPKDTLMISRTPEVTCVVVDVSHEDPEVKFNWYVDGVEVHNAKTKPREEQYNSTYRVVSVLTVLHQDWLNGKEYKCKVSNKALPAPEEKTISKAKGQPREPQVYVYPPSRDELTKNQVSLTCLVKGFYPSDIAVEWESNGQPENNYKTTPPVLDSDGSFALVSKLTVDKSRWQQGNVFSCSVMHEALHNHYTQKSLSLSPGK
- Kd [1]: 163 nM
- Kd [2]: 253 nM
- Kd [3]: 46.2 nM
- Kd [4]: 255 nM
- Kd [5]: 76.8 nM
- Kd [6]: 202 nM
- Kd [7]: 21.4 nM

B2: Rc66SIDE-P16-Rc66SIDE (antibody, human IgG1, kappa)
light: QIVLSQSPAILSASPGEKVTMTCRASSSVSYIHWFQQKPGSSPKPWIYATSNLASGVPVRFSGSGSGTSYSLTISRVEAEDAATYYCQQWTSNPPTFGGGTKLEIKRTVAAPSVFIFPPSDEQLKSGTASVVCLLNNFYPREAKVQWKVDNALQSGNSQESVTEQDSKDSTYSLSSTLTLSKADYEKHKVYACEVTHQGLSSPVTKSFNRGEC
heavy: QVQLQQPGAELVKPGASVKMSCKASGYTFTSYNMHWVKQTPGRGLEWIGAIYPGNGDTSYNQKFKGKATLTADKSSSTAYMQLSSLTSEDSAVYYCARSTYYGGDWYFNVWGAGTTVTVSAASTKGPSVFPLAPSSKSTSGGTAALGCLVKDYFPEPVTVSWNSGALTSGVHTFPAVLQSSGLYSLSSVVTVPSSSLGTQTYICNVNHKPSNTKVDKKAEPKSCDKTHTCPPCPAPELLGGPDVFLFPPKPKDTLMISRTPEVTCVVVDVSHEDPEVKFNWYVDGVEVHNAKTKPREEQYNSTYRVVSVLTVLHQDWLNGKEYKCKVSNKALPAPEEKTISKAKGQPREPQVYVLPPSRDELTKNQVSLLCLVKGFYPSDIAVEWESNGQPENNYLTWPPVLDSDGSFFLYSKLTVDKSRWQQGNVFSCSVMHEALHNHYTQKSLSLSPGK
chain: CPPCPAPELLGGPDVFLFPPKPKDTLMISRTPEVTCVVVDVSHEDPEVKFNWYVDGVEVHNAKTKPREEQYNSTYRVVSVLTVLHQDWLNGKEYKCKVSNKALPAPEEKTISKAKGQPREPQVYVYPPSRDELTKNQVSLTCLVKGFYPSDIAVEWESNGQPENNYKTTPPVLDSDGSFALVSKLTVDKSRWQQGNVFSCSVMHEALHNHYTQKSLSLSPGK
- Kd [1]: < 0.001 nM
- Kd [2]: 0.556 nM
- Kd [3]: 0.257 nM
- Kd [4]: 0.808 nM
- Kd [5]: 2.71 nM
- Kd [8]: < 0.001 nM
- Kd [6]: 1.83 nM
- Kd [7]: < 0.001 nM

B3: Rc66SIDE-P28-Rc66SIDE (antibody, human IgG1, kappa)
light: QIVLSQSPAILSASPGEKVTMTCRASSSVSYIHWFQQKPGSSPKPWIYATSNLASGVPVRFSGSGSGTSYSLTISRVEAEDAATYYCQQWTSNPPTFGGGTKLEIKRTVAAPSVFIFPPSDEQLKSGTASVVCLLNNFYPREAKVQWKVDNALQSGNSQESVTEQDSKDSTYSLSSTLTLSKADYEKHKVYACEVTHQGLSSPVTKSFNRGEC
heavy: QVQLQQPGAELVKPGASVKMSCKASGYTFTSYNMHWVKQTPGRGLEWIGAIYPGNGDTSYNQKFKGKATLTADKSSSTAYMQLSSLTSEDSAVYYCARSTYYGGDWYFNVWGAGTTVTVSAASTKGPSVFPLAPSSKSTSGGTAALGCLVKDYFPEPVTVSWNSGALTSGVHTFPAVLQSSGLYSLSSVVTVPSSSLGTQTYICNVNHKPSNTKVDKKAEPKSCDKTHTCPPCPAPELLGGPDVFLFPPKPKDTLMISRTPEVTCVVVDVSHEDPEVKFNWYVDGVEVHNAKTKPREEQYNSTYRVVSVLTVLHQDWLNGKEYKCKVSNKALPAPEEKTISKAKGQPREPQVYVLPPSRDELTKNQVSLLCLVKGFYPSDIAVEWESNGQPENNYLTWPPVLDSDGSFFLYSKLTVDKSRWQQGNVFSCSVMHEALHNHYTQKSLSLSPGK
chain: CPPCPAPELLGGPDVFLFPPKPKDTLMISRTPEVTCVVVDVSHEDPEVKFNWYVDGVEVHNAKTKPREEQYNSTYRVVSVLTVLHQDWLNGKEYKCKVSNKALPAPEEKTISKAKGQPREPQVYVYPPSRDELTKNQVSLTCLVKGFYPSDIAVEWESNGQPENNYKTTPPVLDSDGSFALVSKLTVDKSRWQQGNVFSCSVMHEALHNHYTQKSLSLSPGK
- Kd [1]: 5.64 nM
- Kd [2]: 7.28 nM
- Kd [3]: 4.98 nM
- Kd [4]: 5.42 nM
- Kd [5]: 6.62 nM
- Kd [8]: 1.14 nM
- Kd [6]: 8.11 nM
- Kd [7]: < 0.001 nM

B4: Rc66SIDE-P4-Rc66SIDE (antibody, human IgG1, kappa)
light: QIVLSQSPAILSASPGEKVTMTCRASSSVSYIHWFQQKPGSSPKPWIYATSNLASGVPVRFSGSGSGTSYSLTISRVEAEDAATYYCQQWTSNPPTFGGGTKLEIKRTVAAPSVFIFPPSDEQLKSGTASVVCLLNNFYPREAKVQWKVDNALQSGNSQESVTEQDSKDSTYSLSSTLTLSKADYEKHKVYACEVTHQGLSSPVTKSFNRGEC
heavy: QVQLQQPGAELVKPGASVKMSCKASGYTFTSYNMHWVKQTPGRGLEWIGAIYPGNGDTSYNQKFKGKATLTADKSSSTAYMQLSSLTSEDSAVYYCARSTYYGGDWYFNVWGAGTTVTVSAASTKGPSVFPLAPSSKSTSGGTAALGCLVKDYFPEPVTVSWNSGALTSGVHTFPAVLQSSGLYSLSSVVTVPSSSLGTQTYICNVNHKPSNTKVDKKAEPKSCDKTHTCPPCPAPELLGGPDVFLFPPKPKDTLMISRTPEVTCVVVDVSHEDPEVKFNWYVDGVEVHNAKTKPREEQYNSTYRVVSVLTVLHQDWLNGKEYKCKVSNKALPAPEEKTISKAKGQPREPQVYVLPPSRDELTKNQVSLLCLVKGFYPSDIAVEWESNGQPENNYLTWPPVLDSDGSFFLYSKLTVDKSRWQQGNVFSCSVMHEALHNHYTQKSLSLSPGK
chain: CPPCPAPELLGGPDVFLFPPKPKDTLMISRTPEVTCVVVDVSHEDPEVKFNWYVDGVEVHNAKTKPREEQYNSTYRVVSVLTVLHQDWLNGKEYKCKVSNKALPAPEEKTISKAKGQPREPQVYVYPPSRDELTKNQVSLTCLVKGFYPSDIAVEWESNGQPENNYKTTPPVLDSDGSFALVSKLTVDKSRWQQGNVFSCSVMHEALHNHYTQKSLSLSPGK
- Kd [1]: 1.05 nM
- Kd [2]: 3.17 nM
- Kd [3]: 1.14 nM
- Kd [4]: 2.54 nM
- Kd [5]: 3.87 nM
- Kd [8]: < 0.001 nM
- Kd [6]: 4.93 nM
- Kd [7]: < 0.001 nM

B5: B19c66AAC9 (one-arm antibody) (antibody, human IgG1, kappa)
light: not shown
heavy: QVQLQQSGAELVRPGSSVKISCKASGYAFSSYWMNWVKQRPGQGLEWIGQIWPGDGDTNYNGKFKGKATLTADESSSTAYMQLSSLASEDSAVYFCARRETTTVGRYYYAMDYWGQGTTVTVSSASTKGPSVFPLAPSSKSTSGGTAALGCLVKDYFPEPVTVSWNSGALTSGVHTFPAVLQSSGLYSLSSVVTVPSSSLGTQTYICNVNHKPSNTKVDKKVEPKSCDKTHTCPPCPAPKRRGGPSVFLFPPKPKDTLMISRTPEVTCVVVDVSHEDPEVKFNWYVDGVEVHNAKTKPREEQYNSTYRVVSVLTVLHQDWLNGKEYKCKVSNKALPAPIEKTISKAKGQPREPQVYVLPPSRDELTKNQVSLLCLVKGFYPSDIAVEWESNGQPENNYLTWPPVLDSDGSFFLYSKLTVDKSRWQQGNVFSCSVMHEALHNHYTQKSLSLSPGK
chain: CPPCPAPEDEGGPSVFLFPPKPKDTLMISRTPEVTCVVVDVSHEDPEVKFNWYVDGVEVHNAKTKPREEQYNSTYRVVSVLTVLHQDWLNGKEYKCKVSNKALPAPIEKTISKAKGQPREPQVYVYPPSRDELTKNQVSLTCLVKGFYPSDIAVEWESNGQPENNYKTTPPVLDSDGSFALVSKLTVDKSRWQQGNVFSCSVMHEALHNHYTQKSLSLSPGK
- Kd [9]: 21 nM
